# In patent US20200087363A1 (IMMATICS BIOTECHNOLOGIES, published 2020):
# Target: T1, HLA-B*44:05 (human)
# T1 construct: also called peptide-receptive MHC class I molecule
# Test: UV peptide exchange, anti-b2m ELISA
# Procedure: Only peptide candidates that can effectively bind and stabilize the peptide-receptive MHC molecules prevent dissociation of the MHC complexes. To determine the yield of the exchange reaction, an ELISA was performed based on the detection of the light chain (β2m) of stabilized MHC complexes. The assay was performed as generally described in Rodenko et al. (Rodenko et al., 2006)
# 96 well MAXISorp plates (NUNC) were coated over night with 2 ug/ml streptavidin in PBS at room temperature, washed 4× and blocked for 1 h at 37° C. in 2% BSA containing blocking buffer. […] Peptide-MHC monomers of the UV-exchange reaction were diluted 100-fold in blocking buffer. Samples were incubated for 1 h at 37° C., washed four times, incubated with 2 ug/ml HRP conjugated anti-β2m for 1 h at 37° C., washed again and detected with TMB solution that is stopped with […]. Absorption was measured at 450 nm.
row,Binder,peptide exchange yield [%]
1,QEAPRPASSL,50 to 75
2,AESDFSNNML,50 to 75
3,DEDGKIVGY,20 to 50
4,KESDAGRYY,50 to 75
5,KESDAGKYY,50 to 75
6,NEAGEMIKHY,20 to 50
7,DEINHQSL,20 to 50
8,EEVQDGKVI,20 to 50
9,QEPFTRPVL,50 to 75
10,AEDEDGKIVGY,20 to 50
11,AEIEADRSYQH,50 to 75
12,QELFLHPVL,> 75
13,HENLIEDF,50 to 75
14,GESVSWHLF,50 to 75
15,EEAMKRLSY,20 to 50
16,NENLDYAIL,> 75
17,AETENRYCV,50 to 75
18,IEAPKLMVV,10 to 20
19,HEIIIRSHW,50 to 75
20,EKGLISAF,20 to 50
21,NESDRLVYF,50 to 75
22,EELRMLSF,20 to 50
23,EEMPEEIHL,50 to 75
24,KEAPNIVTL,> 75

row,Binder,peptide exchange yield [%]
1,KEVDPTGHSF,50 to 75
2,GESSEVKAVL,50 to 75
3,EVEVGEVKSW,10 to 20
4,AETEPERHLG,20 to 50
5,AESFTSGRHYW,> 75
6,EEIEAHIAL,50 to 75
7,AEIATTGQLY,50 to 75
8,KEVDPASNTYTL,20 to 50
9,IEIKDRLQL,50 to 75
10,IEAYLERIGY,50 to 75
11,MEFKTLNKN,20 to 50
12,KEHNSSVPWSS,> 75
13,EEGPSVPKIY,20 to 50
14,MEELRMLSF,50 to 75
15,QEIDQKRLEF,20 to 50
16,EAYDIELNKW,50 to 75
17,EEQDFINNRY,> 75
18,IEIILLSGSL,> 75
19,EMPGGPVW,50 to 75
20,AEANPRDLGASW,50 to 75
21,MEAELVRRI,50 to 75
22,LEVLHQGQW,50 to 75
23,QEIDRGQYI,> 75

# The remaining lines, values ahead:
row,peptide exchange yield [%],Binder
1,20 to 50,RMLSFQQMTW
2,20 to 50,SQDVAGTTF
3,50 to 75,SEASQSPQY
4,50 to 75,VEEERYTGQW
5,50 to 75,YENIPVDKV
6,20 to 50,WEVVHTVF
7,50 to 75,SEVPVDSHY
8,50 to 75,SEKWFRMGF
9,20 to 50,TELQIPSF
10,20 to 50,TEHSGIYSC
11,20 to 50,VEAQDRETW
12,50 to 75,RYFDENIQKFIW
13,> 75,VEVNGVPRW
14,50 to 75,REYQEVMNSKL
15,> 75,REMFVFKDQW
16,10 to 20,VTEGAVEVKY
17,20 to 50,SEVFHVSEA
18,50 to 75,SEIYQPRGF
19,50 to 75,SEVPVDSHYY
20,50 to 75,TELTEARVQVW
21,> 75,VEVKYEGHW
22,20 to 50,RESHLTEIRQY
23,> 75,TEDARHPESW
